{
  "source": "patent US7534937B2",
  "about": "“Genes conferring herbicide resistance” (Athenix Corporation, priority 2004, dated 2009)",
  "molecules": {"B1": {"name": "grg8: Glyphosate resistance gene from strain ATX4145 encoding a novel non-Class II EPSP synthase (SEQ ID NO:3); ORF carried in plasmid pAX299 (protein, listed as Brevundomonas vesicularis)", "chain": "MMMGRAKLTIIPPGKPLTGRAMPPGSKSITNRALLLAGLAKGTSRLTGALKSDDTRYMAEALRAMGVTIDEPDDTTFIVKGSGKLQPPAAPLFLGNAGTATRFLTAAAALVDGKVIVDGDAHMRKRPIGPLVDALRSLGIDASAETGCPPVTINGTGRFEASRVQIDGGLSSQYVSALLMMAAGGDRAVDVELLGEHIGALGYIDLTVAAMRAFGAKVERVSPVAWRVEPTGYHAADFVIEPDASAATYLWAAEVLSGGKIDLGTPAEQFSQPDAKAYDLISKFPHLPAVIDGSQMQDAIPTLAVLAAFNEMPVRFVGIENLRVKECDRIRALSSGLSRIVPNLGTEEGDDLIIASDPSLAGKILTAEIDSFADHRIAMSFALAGLKIGGITILDPDCVAKTFPSYWNVLSSLGVAYED"}},
  "tested_on": "E. coli strain DH5α",
  "assay": "Growth (OD600) in M63 broth containing glyphosate of cells carrying pAX299 (grg8)",
  "type": "cell-based",
  "details": "for OD600: 37° C., about 46 hours, means ± standard deviations, triplicate cultures",
  "experimental": "The grg8 open reading frame (ORF) was amplified by PCR, cloned into the plasmid vector pCR-Blunt-II from Invitrogen, and transformed into E. coli strain DH5α. Plasmid DNA was prepared and the presence and orientation of the inserts were determined by restriction digest. One clone contained the ORF in the forward orientation with respect to the lac promoter in the vector. This plasmid was named pAX299. The insert was sequenced and the plasmid was tested for the ability to confer resistance to glyphosate.\npAX299 was tested for the ability to grow on M63 medium in the presence of glyphosate using cells containing empty vector as a control. The plasmid pAX296 in host strain DH5α was used as a negative control. This plasmid contains a fragment of tobacco genomic DNA cloned into the vector pCR-Blunt-II. Starter cultures of the two strains were grown in M63 broth with 50 μg/ml kanamycin to maintain the plasmid. The starter cultures were diluted to approximately equal cell densities, as determined by measuring OD600, then diluted 1 to 200 into 3 ml of M63 broth containing 0 to 200 mM glyphosate. Triplicate 3 ml cultures of each strain in each concentration were grown. Cultures were grown at 37° C. with constant shaking. After about 46 hours, 0.3 ml aliquots were withdrawn and the OD600 was measured. Values represent means + standard deviations.",
  "data": [
    {"molecule": "B1", "values": [
      {"measurement": "OD600", "setting": "0 mM glyphosate", "result": "1.18 ± 0.029"},
      {"measurement": "Glyphosate resistance (conclusion from Table 1)", "setting": "0 to 200 mM glyphosate", "result": "confers resistance to high levels of glyphosate"},
      {"measurement": "OD600", "setting": "10 mM glyphosate", "result": "1.15 ± 0.018"},
      {"measurement": "OD600", "setting": "20 mM glyphosate", "result": "1.10 ± 0.043"},
      {"measurement": "OD600", "setting": "50 mM glyphosate", "result": "1.20 ± 0.037"},
      {"measurement": "OD600", "setting": "100 mM glyphosate", "result": "1.31 ± 0.024"},
      {"measurement": "OD600", "setting": "200 mM glyphosate", "result": "0.05 ± 0.004"}
    ]}
  ]
}
